Experimental data reported in patent US20030008329A1 (Takeda / Millennium, published 2003).
Where no end group is shown, it is not given here.

T1: mouse-derived galanin receptor protein (mouse pancreatic β-cell line MIN6-derived, encoded by pMGR20) (mouse, UniProt P56479 1-348)
T1 construct: also called mouse galanin receptor; MIN6-derived galanin receptor protein
T1 sequence: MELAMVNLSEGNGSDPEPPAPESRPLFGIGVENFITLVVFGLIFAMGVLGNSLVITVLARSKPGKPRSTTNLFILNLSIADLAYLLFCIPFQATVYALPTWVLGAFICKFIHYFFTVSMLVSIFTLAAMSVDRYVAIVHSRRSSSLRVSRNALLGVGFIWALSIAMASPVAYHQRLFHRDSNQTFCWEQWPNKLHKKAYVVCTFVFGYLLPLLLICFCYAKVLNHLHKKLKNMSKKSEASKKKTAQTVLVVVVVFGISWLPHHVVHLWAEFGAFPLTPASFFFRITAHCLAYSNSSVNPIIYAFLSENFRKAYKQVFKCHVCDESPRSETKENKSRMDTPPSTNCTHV


Legend:
[1] = biological target: mouse-derived galanin receptor protein (mouse pancreatic β-cell line MIN6-derived, encoded by pMGR20) (mouse) (UniProt P56479); assay: competition with [125I] porcine galanin on MIN6 cell membrane fractions, 25 C 75 min, filtration
[2] = biological target: mouse-derived galanin receptor protein (mouse pancreatic β-cell line MIN6-derived, encoded by pMGR20) (mouse) (UniProt P56479); assay: competition with porcine [125I] galanin on membranes of CHO cells expressing the mouse galanin receptor
[3] = biological target: mouse-derived galanin receptor protein (mouse pancreatic β-cell line MIN6-derived, encoded by pMGR20) (mouse) (UniProt P56479); assay: competition with 100 pM porcine [125I] galanin on membranes of CHO cells expressing the mouse galanin receptor, 25 C 75 min
[4] = biological target: T1, mouse-derived galanin receptor protein …; assay: saturation binding and Scatchard plot analysis on membrane fractions of CHO cells transformed with mouse galanin receptor cDNA, 25 C 75 min, filtration
Excerpt: (§1) The results shown are from one representative experiment performed in triplicate assays.
as §1

[5] = biological target: T1, mouse-derived galanin receptor protein …; assay: competition with [125I] porcine galanin on MIN6 cell membrane fractions, 25 C 75 min, filtration
Description: The MIN6 cell membrane fractions prepared by the method of the above-mentioned (1) were diluted with a buffer for the receptor binding experiment (containing 20 mM of Tris, 1 mM of EDTA, 0.03% of NaN , 0.1% of BSA, 0.05% of CHAPS, 0.5 mM of PMSF, 10 μg/ml of pepstatin, 20 μg/ml of leupeptin and 4 μg/ml of E-64; pH: 7.4) to make the membrane protein concentration 50 μg/ml.
The mixture was allowed to stand in a water bath of 25° C. for 75 minutes to promote the receptor binding reaction. Thereafter, 1.5 ml of an ice-cooled buffer for the binding experiment was added to the reaction solution for quenching the binding reaction and filtered with a glass fiber filter (GF/F, manufactured by Whatman) immediately whereupon the membrane fractions were collected on the filter paper. Then the filter paper was washed with 1.5 ml of the same buffer and the amount of the radioisotope in the filter paper was determined by a gamma-ray detector.

[6] = biological target: T1, mouse-derived galanin receptor protein …; assay: competition with porcine [125I] galanin on membranes of CHO cells expressing the mouse galanin receptor
Description: (§2) Membrane fractions (1 μg of protein) were incubated with the ligands for 75 min at 25° C. […] Each symbol represents the mean value±S.E.M. of the triplicate assays.

[7] = biological target: T1, mouse-derived galanin receptor protein …; assay: competition with 100 pM porcine [125I] galanin on membranes of CHO cells expressing the mouse galanin receptor, 25 C 75 min
Description: as §2

Row | Molecule | IC50 [5] | Ki [6] | IC50 [7] | also measured
1 | galanin antagonist (galantide) (peptide) |  |  |  | IC50 [1]: 0.69 nM
2 | M15 (galanin receptor antagonist) (peptide) |  |  |  | Ki [2]: 0.23 nM; IC50 [3]: 0.83 nM
3 | GWTLNSAGYLLGPHAIDNHRSFHDKYGLA (peptide, UniProt P07480 33-61, looked up, ends and bridges not checked; also: [125I] radioisotope label (residue not given here), mature; also called labeled galanin) [porcine [125I] galanin] |  |  |  | Kd [4]: 0.045 nM
4 | GWTLNSAGYLLGPHAI (The range 1-16 counts on the mature peptide, not on the precursor) [galanin (1-16) partial peptide] | 3.3 nM | 1 nM | 3.6 nM | 

More lines, main results first:

Row | IC50 [5] | Ki [6] | IC50 [7] | Molecule | also measured
5 | 0.12 nM | 0.072 nM |  | GWTLNSAGYLLGPHAIDNHRSFHDKYGLA (peptide, UniProt P07480 33-61, looked up, ends and bridges not checked, mature; The assay used the 29-residue peptide; also called standard porcine galanin; galanin (porcine)) [porcine galanin (unlabeled)] | 
6 |  | 0.12 nM | 0.43 nM | GWTLNSAGYLLGPHAVGNHRSFSDKNGLTS (peptide, UniProt P22466 33-62, looked up, mature; The assay used the galanin peptide) [human galanin (unlabeled)] | 
